The labels stand for the following.
B1: MLH1 (parent)
chain: YAHQMVRTDSREQKLDAFLQPLSK
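Further: lentivirally expressed fusions sorted by FACS into six bins by GFP to DsRed ratio, PSI derived from sequencing read proportions per bin multiplied by bin number.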

The variants in the data set derive from B1. Kind of data set: protein stability index of a GFP-peptide fusion (GPS, HEK-293T) (PSI 1-6); higher = more stable. The settings on record: c terminus: a fixed tail appended.
Regarding YALQMVRTDSREQKLDAFLQPLSK [H3L], the protein stability index was 2.19.

Consider YAYQMVRTDSREQKLDAFLQPLSK [H3Y], for which the protein stability index is 2.

For YAGQMVRTDSREQKLDAFLQPLSK [H3G], the protein stability index turned out to be 2.15.

Turning to YANQMVRTDSREQKLDAFLQPLSK [H3N], the protein stability index was 3.13.

As to YADQMVRTDSREQKLDAFLQPLSK [H3D], the protein stability index was 3.05.

On to YAFQMVRTDSREQKLDAFLQPLSK [H3F], for which the protein stability index turned out to be 2.19.

For YAIQMVRTDSREQKLDAFLQPLSK [H3I], the protein stability index turned out to be 2.5.

On to YACQMVRTDSREQKLDAFLQPLSK [H3C], for which the protein stability index is 2.01.

Consider YAKQMVRTDSREQKLDAFLQPLSK [H3K], for which the protein stability index worked out at 2.75.

On to YAHVMVRTDSREQKLDAFLQPLSK [Q4V], for which the protein stability index was 2.37.

Regarding YAHLMVRTDSREQKLDAFLQPLSK [Q4L], the protein stability index was 2.37.

Turning to YAHTMVRTDSREQKLDAFLQPLSK [Q4T], the protein stability index stood at 2.16.

For the variant YAHSMVRTDSREQKLDAFLQPLSK [Q4S], the protein stability index stood at 2.42.

For YAHFMVRTDSREQKLDAFLQPLSK [Q4F], the protein stability index was 2.

Turning to YAHGMVRTDSREQKLDAFLQPLSK [Q4G], the protein stability index was determined as 2.

As for YAHHMVRTDSREQKLDAFLQPLSK [Q4H], the protein stability index was 2.04.

For YAHIMVRTDSREQKLDAFLQPLSK [Q4I], the protein stability index turned out to be 2.16.

With YAHKMVRTDSREQKLDAFLQPLSK [Q4K], the protein stability index was 2.

With YAHWMVRTDSREQKLDAFLQPLSK [Q4W], the protein stability index came out at 2.7.

As to YAHCMVRTDSREQKLDAFLQPLSK [Q4C], the protein stability index stood at 2.07.

Regarding YAHRMVRTDSREQKLDAFLQPLSK [Q4R], the protein stability index worked out at 1.93.

As to YAHAMVRTDSREQKLDAFLQPLSK [Q4A], the protein stability index came to 2.1.

In the case of YAHMMVRTDSREQKLDAFLQPLSK [Q4M], the protein stability index came to 2.51.

For the variant YAHQMVITDSREQKLDAFLQPLSK [R7I], the protein stability index was 2.57.

As to YAHQMVETDSREQKLDAFLQPLSK [R7E], the protein stability index was 3.17.

In the case of YAHQMVKTDSREQKLDAFLQPLSK [R7K], the protein stability index came to 2.74.

Turning to YAHQMVPTDSREQKLDAFLQPLSK [R7P], the protein stability index is 3.06.

Regarding YAHQMVGTDSREQKLDAFLQPLSK [R7G], the protein stability index is 1.96.

With YAHQMVCTDSREQKLDAFLQPLSK [R7C], the protein stability index was found to be 1.59.

For YAHQMVFTDSREQKLDAFLQPLSK [R7F], the protein stability index is 2.18.

In the case of YAHQMVNTDSREQKLDAFLQPLSK [R7N], the protein stability index worked out at 2.98.

For the variant YAHQMVWTDSREQKLDAFLQPLSK [R7W], the protein stability index was determined as 2.32.

In the case of YAHQMVVTDSREQKLDAFLQPLSK [R7V], the protein stability index turned out to be 2.12.

Regarding YSHQMVRTDSREQKLDAFLQPLSK [A2S], the protein stability index turned out to be 2.82.

In the case of YTHQMVRTDSREQKLDAFLQPLSK [A2T], the protein stability index came out at 2.55.

As for YYHQMVRTDSREQKLDAFLQPLSK [A2Y], the protein stability index was 2.39.

For YVHQMVRTDSREQKLDAFLQPLSK [A2V], the protein stability index came out at 1.93.

In the case of YQHQMVRTDSREQKLDAFLQPLSK [A2Q], the protein stability index was determined as 2.74.

With YNHQMVRTDSREQKLDAFLQPLSK [A2N], the protein stability index was determined as 3.54.

For the variant YRHQMVRTDSREQKLDAFLQPLSK [A2R], the protein stability index worked out at 3.12.

Consider YAHQMMRTDSREQKLDAFLQPLSK [V6M], for which the protein stability index is 2.29.

Consider YAHQMLRTDSREQKLDAFLQPLSK [V6L], for which the protein stability index came out at 2.48.

As for YAHQMFRTDSREQKLDAFLQPLSK [V6F], the protein stability index was 2.19.

Take YAHQMDRTDSREQKLDAFLQPLSK [V6D]: the protein stability index came out at 3.03.

For the variant YAHQMYRTDSREQKLDAFLQPLSK [V6Y], the protein stability index was found to be 2.42.

Turning to YAHQMKRTDSREQKLDAFLQPLSK [V6K], the protein stability index was found to be 2.53.

YAHQMSRTDSREQKLDAFLQPLSK [V6S]: the protein stability index is 2.97.

As to YAHQMIRTDSREQKLDAFLQPLSK [V6I], the protein stability index stood at 2.43.

Consider YAHQMTRTDSREQKLDAFLQPLSK [V6T], for which the protein stability index came out at 2.7.

Turning to YAHQMQRTDSREQKLDAFLQPLSK [V6Q], the protein stability index was found to be 2.71.

For YAHQMVRTISREQKLDAFLQPLSK [D9I], the protein stability index came to 2.15.

Regarding YAHQMVRTASREQKLDAFLQPLSK [D9A], the protein stability index is 2.18.

In the case of YAHQMVRTQSREQKLDAFLQPLSK [D9Q], the protein stability index was 2.7.

For the variant YAHQMVRTHSREQKLDAFLQPLSK [D9H], the protein stability index was determined as 2.75.

As to YAHQMVRTPSREQKLDAFLQPLSK [D9P], the protein stability index came to 2.29.

With YAHQMVRTMSREQKLDAFLQPLSK [D9M], the protein stability index is 2.49.

YAHQMVRTVSREQKLDAFLQPLSK [D9V]: the protein stability index worked out at 1.89.

YAHQMVRTESREQKLDAFLQPLSK [D9E]: the protein stability index was 2.95.

YAHQMVRTRSREQKLDAFLQPLSK [D9R]: the protein stability index was determined as 2.54.

YAHQMVRTTSREQKLDAFLQPLSK [D9T]: the protein stability index came to 1.99.

As for YAHQMVRTNSREQKLDAFLQPLSK [D9N], the protein stability index amounted to 2.53.

Consider YAHQMVRTYSREQKLDAFLQPLSK [D9Y], for which the protein stability index was determined as 1.98.

In the case of YAHQMVRTCSREQKLDAFLQPLSK [D9C], the protein stability index is 2.46.

As to YAHQMVRTWSREQKLDAFLQPLSK [D9W], the protein stability index came to 1.8.

In the case of YAHQMVRTLSREQKLDAFLQPLSK [D9L], the protein stability index came to 2.15.

Consider YAHQMVRTSSREQKLDAFLQPLSK [D9S], for which the protein stability index came to 2.54.

As to YAHQMVRFDSREQKLDAFLQPLSK [T8F], the protein stability index amounted to 2.12.

On to YAHQMVRWDSREQKLDAFLQPLSK [T8W], for which the protein stability index amounted to 1.83.

Consider YAHQMVRDDSREQKLDAFLQPLSK [T8D], for which the protein stability index worked out at 2.78.

On to YAHQMVRLDSREQKLDAFLQPLSK [T8L], for which the protein stability index was determined as 2.43.

In the case of YAHQMVRIDSREQKLDAFLQPLSK [T8I], the protein stability index was 2.49.

On to YAHQMVRCDSREQKLDAFLQPLSK [T8C], for which the protein stability index amounted to 2.27.

With YAHQMVRHDSREQKLDAFLQPLSK [T8H], the protein stability index came to 2.04.

Take YAHQMVRPDSREQKLDAFLQPLSK [T8P]: the protein stability index worked out at 2.19.

Regarding YAHQMVRSDSREQKLDAFLQPLSK [T8S], the protein stability index stood at 2.71.

On to YAHQMVRGDSREQKLDAFLQPLSK [T8G], for which the protein stability index was 2.69.

Take YAHQLVRTDSREQKLDAFLQPLSK [M5L]: the protein stability index was determined as 2.49.

As to YAHQSVRTDSREQKLDAFLQPLSK [M5S], the protein stability index came to 3.02.

For YAHQDVRTDSREQKLDAFLQPLSK [M5D], the protein stability index stood at 3.34.

Take YAHQRVRTDSREQKLDAFLQPLSK [M5R]: the protein stability index is 2.59.

Consider YAHQKVRTDSREQKLDAFLQPLSK [M5K], for which the protein stability index was 2.98.

Regarding YAHQFVRTDSREQKLDAFLQPLSK [M5F], the protein stability index stood at 2.34.

Take YAHQPVRTDSREQKLDAFLQPLSK [M5P]: the protein stability index was determined as 2.57.

On to YAHQGVRTDSREQKLDAFLQPLSK [M5G], for which the protein stability index turned out to be 2.63.

As to YAHQYVRTDSREQKLDAFLQPLSK [M5Y], the protein stability index is 2.43.

In the case of YAHQNVRTDSREQKLDAFLQPLSK [M5N], the protein stability index is 3.16.

Turning to YAHQHVRTDSREQKLDAFLQPLSK [M5H], the protein stability index is 2.53.

Turning to YAHQEVRTDSREQKLDAFLQPLSK [M5E], the protein stability index worked out at 3.31.

As for YAHQMVRTDAREQKLDAFLQPLSK [S10A], the protein stability index turned out to be 2.97.

Consider YAHQMVRTDGREQKLDAFLQPLSK [S10G], for which the protein stability index came to 2.71.

Turning to YAHQMVRTDLREQKLDAFLQPLSK [S10L], the protein stability index turned out to be 1.72.

Consider YAHQMVRTDMREQKLDAFLQPLSK [S10M], for which the protein stability index amounted to 2.53.

As to YAHQMVRTDIREQKLDAFLQPLSK [S10I], the protein stability index worked out at 3.

On to YAHQMVRTDEREQKLDAFLQPLSK [S10E], for which the protein stability index turned out to be 2.79.

The record behind these values is the supplement of paper PMC10567573.
